We go through 18 molecules from patent publication US9073974B2, “RGD-containing cyclic peptides” (The Regents of the University of California, priority 2009, dated 2015).

Bridge positions count the residues as written; N and C are the ends. Square brackets hold non-standard residues; d marks the D form. Ends that are not written are not given here. Peptide text beside a SMILES is read from it. * marks the point of attachment. Pro(5R-Ph) = O=C(O)[C@@H]1CC[C@H](c2ccccc2)N1; dBta = N[C@H](Cc1csc2ccccc12)C(=O)O; Cyclohexylacetyl = O=C(CC1CCCCC1)*; 2Naphthoyl = O=C(c1ccc2ccccc2c1)*; dCit = NC(=O)NCCC[C@@H](N)C(=O)O; dPen = CC(C)(S)[C@@H](N)C(=O)O; Nicotinoyl = O=C(c1cccnc1)*; Pentanoyl = CCCCC(=O)*; X4 = O=C(c1ccc(Br)o1)*; βAla = NCCC(=O)O; Sar = CNCC(=O)O A value given as a limit tells only on which side of the number the result lay.

For orientation: IC50 means the point on the concentration scale where inhibition reaches its midpoint. A higher IC50 goes with weaker potency.

The chains are these.
B1: LXW71 (peptide)
peptide: [dC]GRGD[dE][Pro(5R-Ph)][dC]-NH2
modifications: disulfide 1-8; N-terminus assumed
SMILES: N=C(N)NCCC[C@@H]1NC(=O)CNC(=O)[C@H](N)CSSC[C@H](C(N)=O)NC(=O)[C@@H]2CC[C@H](c3ccccc3)N2C(=O)[C@@H](CCC(=O)O)NC(=O)[C@H](CC(=O)O)NC(=O)CNC1=O
B2: LXW78 (peptide)
peptide: Cyclohexylacetyl-[dC]GRGD[dD][dV][dC]-NH2
modifications: disulfide 1-8
SMILES: CC(C)[C@H]1NC(=O)[C@@H](CC(=O)O)NC(=O)[C@H](CC(=O)O)NC(=O)CNC(=O)[C@H](CCCNC(=N)N)NC(=O)CNC(=O)[C@H](NC(=O)CC2CCCCC2)CSSC[C@H](C(N)=O)NC1=O
B3: LXW81 (peptide)
peptide: {p‑chlorophenyl acetyl}-[dC]GRGD[dD][dV][dC]-NH2
modifications: disulfide 1-8
B4: LXW13 (peptide)
peptide: [dC][dA]RGD[dD][dV][dC]-NH2
modifications: disulfide 1-8; N-terminus assumed
SMILES: CC(C)[C@H]1NC(=O)[C@@H](CC(=O)O)NC(=O)[C@H](CC(=O)O)NC(=O)CNC(=O)[C@H](CCCNC(=N)N)NC(=O)[C@@H](C)NC(=O)[C@H](N)CSSC[C@H](C(N)=O)NC1=O
B5: LXW15 (peptide)
peptide: [dC][βAla]RGD[dD][dV][dC]-NH2
modifications: disulfide 1-8; N-terminus assumed
SMILES: CC(C)[C@H]1NC(=O)[C@@H](CC(=O)O)NC(=O)[C@H](CC(=O)O)NC(=O)CNC(=O)[C@H](CCCNC(=N)N)NC(=O)CCNC(=O)[C@H](N)CSSC[C@H](C(N)=O)NC1=O
B6: LXW14 (peptide)
peptide: [dC][Sar]RGD[dD][dV][dC]-NH2
modifications: disulfide 1-8; N-terminus assumed
SMILES: CC(C)[C@H]1NC(=O)[C@@H](CC(=O)O)NC(=O)[C@H](CC(=O)O)NC(=O)CNC(=O)[C@H](CCCNC(=N)N)NC(=O)CN(C)C(=O)[C@H](N)CSSC[C@H](C(N)=O)NC1=O
B7: LXW10 (peptide)
peptide: [dC]GRGD[dD][dV]C-NH2
modifications: disulfide 1-8; N-terminus assumed
SMILES: CC(C)[C@H]1NC(=O)[C@@H](CC(=O)O)NC(=O)[C@H](CC(=O)O)NC(=O)CNC(=O)[C@H](CCCNC(=N)N)NC(=O)CNC(=O)[C@H](N)CSSC[C@@H](C(N)=O)NC1=O
B8: LXW26 (peptide)
peptide: [dC]GRGD[dD][dI][dC]-NH2
modifications: disulfide 1-8; N-terminus assumed
SMILES: CC[C@@H](C)[C@H]1NC(=O)[C@@H](CC(=O)O)NC(=O)[C@H](CC(=O)O)NC(=O)CNC(=O)[C@H](CCCNC(=N)N)NC(=O)CNC(=O)[C@H](N)CSSC[C@H](C(N)=O)NC1=O
B9: LXW9 (peptide)
peptide: CGRGD[dD][dV][dC]-NH2
modifications: disulfide 1-8; N-terminus assumed
SMILES: CC(C)[C@H]1NC(=O)[C@@H](CC(=O)O)NC(=O)[C@H](CC(=O)O)NC(=O)CNC(=O)[C@H](CCCNC(=N)N)NC(=O)CNC(=O)[C@@H](N)CSSC[C@H](C(N)=O)NC1=O
B10: LXW19 (peptide)
peptide: [dPen]GRGD[dD][dV][dPen]-NH2
modifications: disulfide 1-8; N-terminus assumed
SMILES: CC(C)[C@H]1NC(=O)[C@@H](CC(=O)O)NC(=O)[C@H](CC(=O)O)NC(=O)CNC(=O)[C@H](CCCNC(=N)N)NC(=O)CNC(=O)[C@H](N)C(C)(C)SSC(C)(C)[C@H](C(N)=O)NC1=O
B11: LXW73 (peptide)
peptide: [dC]GRGD[dCit][dBta][dC]-NH2
modifications: disulfide 1-8; N-terminus assumed
SMILES: N=C(N)NCCC[C@@H]1NC(=O)CNC(=O)[C@H](N)CSSC[C@H](C(N)=O)NC(=O)[C@@H](Cc2csc3ccccc23)NC(=O)[C@@H](CCCNC(N)=O)NC(=O)[C@H](CC(=O)O)NC(=O)CNC1=O
B12: LXW21 (peptide)
peptide: [dC]GRGD[dD][dV][dPen]-NH2
modifications: disulfide 1-8; N-terminus assumed
SMILES: CC(C)[C@H]1NC(=O)[C@@H](CC(=O)O)NC(=O)[C@H](CC(=O)O)NC(=O)CNC(=O)[C@H](CCCNC(=N)N)NC(=O)CNC(=O)[C@H](N)CSSC(C)(C)[C@H](C(N)=O)NC1=O
B13: LXW20 (peptide)
peptide: [dPen]GRGD[dD][dV][dC]-NH2
modifications: disulfide 1-8; N-terminus assumed
SMILES: CC(C)[C@H]1NC(=O)[C@@H](CC(=O)O)NC(=O)[C@H](CC(=O)O)NC(=O)CNC(=O)[C@H](CCCNC(=N)N)NC(=O)CNC(=O)[C@H](N)C(C)(C)SSC[C@H](C(N)=O)NC1=O
B14: LXW77 (peptide)
peptide: Pentanoyl-[dC]GRGD[dD][dV][dC]-NH2
modifications: disulfide 1-8
SMILES: CCCCC(=O)N[C@@H]1CSSC[C@H](C(N)=O)NC(=O)[C@@H](C(C)C)NC(=O)[C@@H](CC(=O)O)NC(=O)[C@H](CC(=O)O)NC(=O)CNC(=O)[C@H](CCCNC(=N)N)NC(=O)CNC1=O

T1 sequence (P06756 31-1048, chain 1 of 2): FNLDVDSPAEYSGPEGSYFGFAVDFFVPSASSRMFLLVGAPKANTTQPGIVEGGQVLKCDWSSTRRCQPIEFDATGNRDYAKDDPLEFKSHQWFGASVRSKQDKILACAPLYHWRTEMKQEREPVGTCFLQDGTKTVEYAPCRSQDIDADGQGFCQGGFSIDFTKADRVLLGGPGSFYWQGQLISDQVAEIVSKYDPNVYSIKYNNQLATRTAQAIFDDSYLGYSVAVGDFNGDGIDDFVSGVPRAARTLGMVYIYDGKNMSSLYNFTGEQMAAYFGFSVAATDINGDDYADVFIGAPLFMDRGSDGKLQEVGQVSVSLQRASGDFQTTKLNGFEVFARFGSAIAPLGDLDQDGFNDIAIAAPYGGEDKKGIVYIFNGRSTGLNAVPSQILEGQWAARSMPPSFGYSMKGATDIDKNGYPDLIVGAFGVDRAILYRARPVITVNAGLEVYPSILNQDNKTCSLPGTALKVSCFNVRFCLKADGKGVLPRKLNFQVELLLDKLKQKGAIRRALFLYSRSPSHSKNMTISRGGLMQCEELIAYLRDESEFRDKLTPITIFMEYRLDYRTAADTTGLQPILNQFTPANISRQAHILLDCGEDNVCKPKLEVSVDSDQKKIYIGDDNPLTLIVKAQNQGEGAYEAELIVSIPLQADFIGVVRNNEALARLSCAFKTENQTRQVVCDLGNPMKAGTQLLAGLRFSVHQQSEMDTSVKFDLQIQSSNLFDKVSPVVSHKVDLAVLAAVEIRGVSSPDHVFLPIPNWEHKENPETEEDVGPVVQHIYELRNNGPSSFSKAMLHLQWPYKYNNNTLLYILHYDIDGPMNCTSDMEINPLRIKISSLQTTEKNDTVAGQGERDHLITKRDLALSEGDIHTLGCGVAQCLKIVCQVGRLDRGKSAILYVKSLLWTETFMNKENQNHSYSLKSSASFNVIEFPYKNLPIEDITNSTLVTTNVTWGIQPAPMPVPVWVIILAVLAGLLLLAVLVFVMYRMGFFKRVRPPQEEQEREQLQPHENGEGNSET
T1 sequence (P05106 27-788, chain 2 of 2): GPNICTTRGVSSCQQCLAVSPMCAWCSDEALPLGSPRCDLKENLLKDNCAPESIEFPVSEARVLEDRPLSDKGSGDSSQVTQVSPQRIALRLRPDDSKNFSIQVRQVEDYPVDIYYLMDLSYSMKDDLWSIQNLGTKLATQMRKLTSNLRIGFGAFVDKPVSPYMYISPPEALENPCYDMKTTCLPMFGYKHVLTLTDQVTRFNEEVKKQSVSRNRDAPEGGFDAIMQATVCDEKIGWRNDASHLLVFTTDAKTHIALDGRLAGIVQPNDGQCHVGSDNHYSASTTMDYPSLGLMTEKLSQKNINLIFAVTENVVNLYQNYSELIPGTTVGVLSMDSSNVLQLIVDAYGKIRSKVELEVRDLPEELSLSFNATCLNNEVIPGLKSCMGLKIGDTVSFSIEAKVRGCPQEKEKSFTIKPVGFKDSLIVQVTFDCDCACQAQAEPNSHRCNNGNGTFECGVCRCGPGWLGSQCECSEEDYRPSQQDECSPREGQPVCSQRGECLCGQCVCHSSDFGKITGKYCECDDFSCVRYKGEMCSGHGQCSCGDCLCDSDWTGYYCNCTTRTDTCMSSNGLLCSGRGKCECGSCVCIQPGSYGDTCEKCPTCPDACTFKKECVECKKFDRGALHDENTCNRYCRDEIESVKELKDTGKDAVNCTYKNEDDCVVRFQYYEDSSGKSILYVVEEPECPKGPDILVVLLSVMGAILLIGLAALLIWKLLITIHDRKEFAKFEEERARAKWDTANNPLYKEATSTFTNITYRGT

One assay addresses T1, αvβ3 integrin (human, UniProt P06756 31-1048; P05106 27-788).
T1 construct: whole, on cells; Same entry used for αvβ3-K562, U-87 MG and A375M cells; also called αvβ3-K562; αvβ3 transfected K562 cells
The assay can be described thus: flow cytometry, competition with biotinylated LXW7 on αvβ3-K562 cells; ++ = IC50 1-10 µM.
Conditions: not given
As for B1, the IC50 is 1 to 10 µM.
The same measure, in the same setting: next, B2: 1 to 10 µM; B3: 1 to 10 µM.
Same read-out and setting: next, B4: 1 to 10 µM; B5: 1 to 10 µM.
For the molecule B6, the concentration for half-maximal inhibition (IC50) was 1 to 10 µM.
For the molecule B7, the half-inhibitory concentration (IC50) was 1 to 10 µM.
Same read-out and setting: to B8 belongs 1 to 10 µM.
Turning to B9, the IC50 was 1 to 10 µM.
The molecule B10 had a half-maximal inhibitory concentration (IC50) of 1 to 10 µM.
B11 returned an IC50 of 1 to 10 µM.
Still for that read-out and setting: next, B12: 1 to 10 µM; B13: 1 to 10 µM; B14: 1 to 10 µM.

A further assay deals with αvβ3 integrin (Homo sapiens, UniProt P05106+P06756). The assay can be described thus: Inhibition of biotinylated LXW7 binding to αvβ3-K562 cells (flow cytometry). Set-up: expressed in transfected cells; host or cells: K562 (gift of Dr. Yoshikazu Takada, UC Davis). Conditions: LXW9-92: inhibiting the binding of biotinylated LXW7 against αvβ3-K562 cells, LXW7 as internal reference. As for the experimental part: The apparent IC50 were calculated using Graph Prism software (≦www.graphpad.com≧).
Sequence of αvβ3 integrin (Homo sapiens, UniProt P05106+P06756) (P06756 31-889 limits assumed): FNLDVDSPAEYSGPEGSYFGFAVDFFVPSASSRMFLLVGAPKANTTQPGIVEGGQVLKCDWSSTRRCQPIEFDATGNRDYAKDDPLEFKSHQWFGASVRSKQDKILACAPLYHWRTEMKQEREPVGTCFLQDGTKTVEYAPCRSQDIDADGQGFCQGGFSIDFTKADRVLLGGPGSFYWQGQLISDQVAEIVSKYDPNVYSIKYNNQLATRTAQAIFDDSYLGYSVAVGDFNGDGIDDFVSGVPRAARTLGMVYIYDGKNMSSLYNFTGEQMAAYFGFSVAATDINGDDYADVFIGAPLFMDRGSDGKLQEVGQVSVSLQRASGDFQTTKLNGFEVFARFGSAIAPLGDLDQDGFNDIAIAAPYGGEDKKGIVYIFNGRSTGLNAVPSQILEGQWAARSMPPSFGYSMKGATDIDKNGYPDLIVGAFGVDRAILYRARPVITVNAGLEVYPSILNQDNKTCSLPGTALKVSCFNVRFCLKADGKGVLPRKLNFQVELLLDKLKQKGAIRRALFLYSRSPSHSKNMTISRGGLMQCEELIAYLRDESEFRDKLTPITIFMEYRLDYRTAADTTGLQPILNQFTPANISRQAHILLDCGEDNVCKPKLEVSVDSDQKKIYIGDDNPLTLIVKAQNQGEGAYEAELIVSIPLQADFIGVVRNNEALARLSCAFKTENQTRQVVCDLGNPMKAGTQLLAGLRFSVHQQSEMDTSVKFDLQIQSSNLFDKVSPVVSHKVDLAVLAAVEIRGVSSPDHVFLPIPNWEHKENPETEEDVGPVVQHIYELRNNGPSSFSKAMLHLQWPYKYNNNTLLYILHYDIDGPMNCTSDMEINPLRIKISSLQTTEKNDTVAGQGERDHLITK
Sequence of αvβ3 integrin (Homo sapiens, UniProt P05106+P06756) (P06756 891-1048 partner limits assumed): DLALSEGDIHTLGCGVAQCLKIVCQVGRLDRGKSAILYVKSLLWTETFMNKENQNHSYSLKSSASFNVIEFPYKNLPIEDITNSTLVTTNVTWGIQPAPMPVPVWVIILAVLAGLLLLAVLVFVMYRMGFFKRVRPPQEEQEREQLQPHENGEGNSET
Sequence of αvβ3 integrin (Homo sapiens, UniProt P05106+P06756) (P05106 27-788): as the sequence (P05106 27-788, chain 2 of 2) above
The samples were analyzed with Coulter XL-MCL flow cytometry. The histogram and mean fluorescence intensity (MFI) were determined. The apparent Kd, IC50 were calculated using Graph Prism software (≦www.graphpad.com≧).
In the case of `CN1CC(=O)N[C@@H](CCCNC(=N)N)C(=O)NCC(=O)N[C@@H](CC(=O)O)C(=O)N[C@H](CC(=O)O)C(=O)NC2(CCOCC2)C(=O)N[C@H](C(N)=O)CSSC[C@@H](N)C1=O` [LXY38, c-Sar-RGDd-Actp-C], the IC50 is > 20 µM.

The same assay, now with this note: LXW9-92: inhibiting the binding of biotinylated LXW7 against αvβ3-K562 cells; class symbols.
`CC(C)[C@H]1NC(=O)[C@@H](CC(=O)O)NC(=O)[C@H](CC(=O)O)NC(=O)CNC(=O)[C@H](CCCNC(=N)N)NC(=O)CNC(=O)[C@H](NC(=O)c2ccc3ccccc3c2)CSSC[C@H](C(N)=O)NC1=O` [LXW89, 2-naphthoyl-cGRGDdvc] (2Naphthoyl-[dC]GRGD[dD][dV][dC]-NH2; disulfide 1-8): the IC50 was < 1 µM.
On the same count and under the same terms, next, `CC(C)[C@H]1NC(=O)[C@@H](CC(=O)O)NC(=O)[C@H](CC(=O)O)NC(=O)CNC(=O)[C@H](CCCNC(=N)N)NC(=O)CNC(=O)[C@H](NC(=O)c2ccc(Br)o2)CSSC[C@H](C(N)=O)NC1=O` [LXW90, 5-bromo-2-furoyl-cGRGDdvc] (X4-[dC]GRGD[dD][dV][dC]-NH2; disulfide 1-8): 1 to 10 µM; `CC(C)[C@H]1NC(=O)[C@@H](CC(=O)O)NC(=O)[C@H](CC(=O)O)NC(=O)CNC(=O)[C@H](CCCNC(=N)N)NC(=O)CNC(=O)[C@H](NC(=O)c2cccnc2)CSSC[C@H](C(N)=O)NC1=O` [LXW92, nicotinyl-cGRGDdvc] (Nicotinoyl-[dC]GRGD[dD][dV][dC]-NH2; disulfide 1-8): 1 to 10 µM.
